Laboratory results from patent US20220251192A1 (Memorial Sloan Kettering, published 2022).
Numbering of substitutions follows the chain as printed.

B1: chMy96 (antibody, V domains shown)
VH: QVQLQQPGAEVVKPGASVKMSCKASGYTFTSYYIHWIKQTPGQGLEWVGVIYPGNDDISYNQKFKGKATLTADKSSTTAYMQLSSLTSEDSAVYYCAREVRLRYFDVWGAGTTVTVSS
VL: NIMLTQSPSSLAVSAGEKVTMSCKSSQSVFFSSSQKNYLAWYQQIPGQSPKLLIYWASTRESGVPDRFTGSGSGTDFTLTISSVQSEDLAIYYCHQYLSSRTFGGGTKLEIK
notes: also called chimeric form of My96; chimeric anti-CD33 antibody
B2: My96-H1L2 (antibody, human IgG1, V domains shown)
VH: QVQLVQSGAEVKKPGASVKVSCKASGYTFTSYYMHWVRQAPGQGLEWMGVIYPGNDDISYAQKFQGRVTMTADTSTSTVYMELSSLRSEDTAVYYCAREVRLRYFDVWGAGTTVTVSS
VL: NIVLTQSPDSLAVSLGERATINCKSSQSVFFSSSQKNYLAWYQQKPGQPPKLLIYWASTRESGVPDRFSGSGSGTDFTLTISSLQAEDVAVYYCHQYLSSRTFGGGTKLEIK
notes: Humanized My96 IgG (human IgG1 frameworks), expressed in DG44 cells; also called humanized My96 VH-1/VL-2
B3: My96-H3L2 (antibody, human IgG1, V domains shown)
VH: B2 VH with M34I, M70I, T74K, T76A, S77T, V79A, A110Q, T113L
VL: B2 VL
notes: Humanized My96 IgG (human IgG1 frameworks), expressed in DG44 cells; also called hMy96 L2H3 (variable domains as in BsAb BC248); humanized My96 VH-3/VL-2
B4: My96-H2L3 (antibody, human IgG1, V domains shown)
VH: B2 VH with A61N, T74K
VL: B2 VL with K45R, S83R, L109V
notes: Humanized My96 IgG (human IgG1 frameworks), expressed in DG44 cells; also called humanized My96 VH-2/VL-3
B5: My96-H3L3 (antibody, human IgG1, V domains shown)
VH: B2 VH with M34I, M70I, T74K, T76A, S77T, V79A, A110Q, T113L
VL: B2 VL with K45R, S83R, L109V
notes: Humanized My96 IgG (human IgG1 frameworks), expressed in DG44 cells; also called humanized My96 VH-3/VL-3
B6: My96-H1L3 (antibody, human IgG1, V domains shown)
VH: B2 VH
VL: B2 VL with K45R, S83R, L109V
notes: Humanized My96 IgG (human IgG1 frameworks), expressed in DG44 cells; also called humanized My96 VH-1/VL-3
B7: My96-H3L1 (antibody, human IgG1, V domains shown)
VH: B2 VH with M34I, M70I, T74K, T76A, S77T, V79A, A110Q, T113L
VL: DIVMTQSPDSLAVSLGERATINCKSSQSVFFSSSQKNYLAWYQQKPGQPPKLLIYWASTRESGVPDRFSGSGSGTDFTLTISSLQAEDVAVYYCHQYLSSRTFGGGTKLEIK
notes: Humanized My96 IgG (human IgG1 frameworks), expressed in DG44 cells; also called hMy96 L1H3 (variable domains as in BsAb BC269); humanized My96 VH-3/VL-1
B8: My96-H2L1 (antibody, human IgG1, V domains shown)
VH: B2 VH with A61N, T74K
VL: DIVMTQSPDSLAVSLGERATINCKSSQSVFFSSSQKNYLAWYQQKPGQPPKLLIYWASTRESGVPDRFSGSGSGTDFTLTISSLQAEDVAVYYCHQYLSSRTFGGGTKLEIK
notes: Humanized My96 IgG (human IgG1 frameworks), expressed in DG44 cells; also called hMy96 L1H2 (variable domains as in BsAb BC257); humanized My96 VH-2/VL-1
B9: My96-H1L1 (antibody, human IgG1, V domains shown)
VH: B2 VH
VL: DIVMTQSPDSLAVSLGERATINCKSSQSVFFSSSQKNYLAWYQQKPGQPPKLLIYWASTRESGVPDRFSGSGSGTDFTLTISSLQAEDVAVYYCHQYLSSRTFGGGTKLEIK
notes: Humanized My96 IgG (CDRs grafted onto human IgG1 frameworks), expressed in DG44 cells; also called hMy96 H1L1; humanized My96 VH-1/VL-1
B10: My96-H2L2 (antibody, human IgG1, V domains shown)
VH: B2 VH with A61N, T74K
VL: B2 VL
notes: Humanized My96 IgG (human IgG1 frameworks), expressed in DG44 cells; also called humanized My96 VH-2/VL-2

Target: T1, CD33 (UniProt P20138 18-259, limits assumed)
T1 construct: CD33 protein used as the active surface in the Biacore assay (about 1000 RU); also called Siglec-3; SIGLEC3
T1 sequence (P20138 18-259 limits assumed): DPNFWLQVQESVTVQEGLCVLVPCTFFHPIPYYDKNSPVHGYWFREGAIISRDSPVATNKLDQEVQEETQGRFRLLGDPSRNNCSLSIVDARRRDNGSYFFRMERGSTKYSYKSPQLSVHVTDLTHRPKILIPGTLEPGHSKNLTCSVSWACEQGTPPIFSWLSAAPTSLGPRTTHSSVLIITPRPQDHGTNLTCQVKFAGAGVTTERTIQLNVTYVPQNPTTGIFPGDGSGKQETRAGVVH
Experiment: SPR, Biacore T-200, CD33 amine-coupled on CM5 chip, antibody as analyte (31-500 nM)
Procedure: To determine whether humanized anti-CD33 My96 antibodies bind to CD33 with equal affinity as the chimeric form, surface plasmon resonance assay using Biacore T-200 was performed. Biacore T-200 Biosensor, CM5 sensor chip, and related reagents were purchased from GE Healthcare. CD33 as the active surfaces and blank as the reference were immobilized onto the CM5 sensor chip at around 1000 RU (response units) using the Amino Coupling kit (GE Healthcare). CD33 antibodies and relevant control antibodies were diluted in HBS-EP buffer (0.01 M HEPES pH 7.4, 0.15 M NaCl, 3 mM EDTA, 0.05% v/v Surfactant P20) at varying concentrations (31-500 nM) prior to analysis. Samples were injected over the sensor surface at a flow rate of 30 μL/min over 1 min. Following completion of the association phase, dissociation was monitored in HBS-EP buffer for 3 min at the same flow rate or for 30 minutes at 37° C. for antibodies with slow koff. At the end of each cycle, the surface was regenerated using 10 mM NaOH at a flow rate of 50 μL/min over 30 sec. The biosensor curves obtained following injection of the samples over active surface were subtracted from the control curves obtained with the samples injected over reference surface prior to kinetics analysis. The data were analyzed using the Biacore T-200 evaluation software. As shown in the Table below, the humanized anti-CD33 My96 antibodies bound with similar kₒₙ and koff as the chimeric form of the antibodies.

| Kd [pM] | koff [s⁻¹] | kon [M⁻¹ s⁻¹] | Binder |
| --- | --- | --- | --- |
| 0.321 | 2.38e-07 | 739000 | B1 |
| 0.218 | 1.03e-07 | 473000 | B2 |
| 0.294 | 1.6e-07 | 543000 | B3 |
| 0.143 | 9.16e-08 | 641000 | B4 |
| 0.324 | 2.03e-07 | 625000 | B5 |
| 0.88 | 4.95e-07 | 563000 | B6 |
| 0.00645 | 3.63e-09 | 563000 | B7 |
| 2.42 | 1.51e-06 | 623000 | B8 |
| 0.321 | 1.44e-07 | 447000 | B9 |
| 0.273 | 1.42e-07 | 520000 | B10 |
